The source of these data is the DeepSol protein solubility set.

The data set in a line: soluble on expression in E. coli; label from the status in PepcDB or PDB records.
As for “MKIDILTLFPDMFTGVFGSSILKKAQEKEAVELRVVNFRDYTTSKHNSVDDYPYGGGAGMVLTPQPIFDAVEDLTKETERKPRVVLMCPQGERFTQKKAEELAEEEHLIFVCGHYEGYDERIREHLVTDEISIGDYVLTGGELASMVITDSVVRLLPGVLGNHASQVEDSFSTGLLEHPHYTRPADFRGMKVPDVLMSGNHKNIDEWRHKESLRRTYTRRPDLLEERELSKQEKKWLEQIKEGK”, the “soluble on expression in E. coli” value was “not soluble”.

Turning to “MKIEDIYQFFENPPPTYLCQEVAICYILYVLLQGESYGTELIQQLETEHPTYRLSDTVLYSAIKFLEDNRAITGYWKKLEGRGRPRRMYQVSPEWQHQAEDLARLWQNYIYVRTN”, the “soluble on expression in E. coli” value is “soluble”.

As to “MKIEENMELPVILVTSGVLLPGASLKIPIRSKLNIQTIEKYLTRSSNDNYVVIAYKVSTDKVYEVATIAYVEKLFGWTFNSTVHYSLDVIGLHRANIDKLSLPTCIVSKVVDLNEAISNQNAIEKLVTGAKIIASNSLTDKFSREIYSLIDEKEYGKLADLCVSQMKFLGFMQLLEFLGANGTDARVEMCIKWMNEKKDANTLKLKVPNSLEASFPVDGKKRKIPNVKNQVEQLEEKLNAIEFSDEVSDRVYSELHRLKSMNAQQSEYNILMNWLELVSSLPWNTSTIDDIELHKARTILTESHEAMDDVKERVLEHLAVCKMNNSVKGMILCFTGPPGIGKTSIAKAIAESMGRKFQRVSLGGIRDESDIRGHRRTYVAAMPGRIIEALKTCKTNNPVFLLDEVDKLYSGNQGSPSAALLELLDPEQNSTFHDHYLNIPFDVSKIMFIATANDIDRLEPALRDRLEIIEMSGYSLKEKVKICENHLLTRQLTKHCISHDYVKLERQAIVAMIEEYTMEAGVRQLERNVGAICRNVALRLAEALNSDPGADVLPVMELPIQISASNIHKILKNKHMKRVKIVEKMRPLPAGVCFGLSVTTIGGRVMPIEASKSKGTGKIVTTGHLGKVLKESILVAKGWLSANSERLGLGTLEDQDIHVHLPAGAVNKDGPSAGTGLACALVSLATNIPLRSDAAVTGEISLTGHVLPIGGVKEKVLAAQREGLRRVVLPKSNEEEYLKMDEDIRLEMDVVLAETIEDVIGAMMDKSPVLAKL”, the “soluble on expression in E. coli” value is on record as “not soluble”.

Regarding “MKIFENIEDVKAIRKKTGLNQIDFWGKVGVTQSGGSRYETGRKMPKPVRELLRLVHIECIDLAKVNKKDMEIAALLKKHHPDLYAELSKQTKSERKKQS”, the “soluble on expression in E. coli” value is on record as “not soluble”.

Regarding “MKIGDISIHYLNGGNTKMDGGAMFGVVPKPLWSKQYNANERNQINLPTHPILIQTAQYNLIIDAGIGNGKLSEKQLRNFGVDEESHIIADLANYNLTPKDIDYVLMTHMHFDHAAGLTDQAGHAIFENAIHVVQQDEWHEFIAPNIRSKSTYWDKNKGDYSNKLILFEKHFEPVPGIKMQHSGGHSFGHTIITIESQGDKAVHMGDIFPTTAHKNPLWVTAYDDYPMQSIREKERMIPYFIQQQYWFLFYHDENYFAVKYSDDGENIDAYILRETLVDNNLEHHHHHH”, the “soluble on expression in E. coli” value is “soluble”.

With “MKIGFIGAGKMAQALARGLINSGRITADNIIASSPKRDEVFLDQCKALGLNTTHDNAEVVQKSDVVFLAVKPVHVSKVASEIAPALSKEHLVVSIALGITIRNIESLLPTKSRVVRVMPNTPSVVRAGASAFAMGSACRDGDAETVEKLLSTVGFAVEVPEIHIDPVTGLSGSGPSYMFAVIEGLADGGVKVGLPRDLALKLAAYTLLGAAKMVLETGIHPAQLKDDVQSPAGSSVYGMHKLESGGLKGVLMDAVEAATNRSRATGDKALPRDFRNTEM”, the “soluble on expression in E. coli” value is reported as “not soluble”.

Take “MKIGIIGVGKMASAIIKGLKQTPHELIISGSSLERSKEIAEQLALPYAMSHQDLIDQVDLVILGIKPQLFETVLKPLHFKQPIISMAAGISLQRLATFVGQDLPLLRIMPNMNAQILQSSTALTGNALVSQELQARVRDLTDSFGSTFDISEKDFDTFTALAGSSPAYIYLFIEALAKAGVKNGIPKAKALEIVTQTVLASASNLKTSSQSPHDFIDAICSPGGTTIAGLMELERLGLTATVSSAIDKTIDKAKSL”: the “soluble on expression in E. coli” value is on record as “soluble”.

For the sequence “MKIRIFVPQNKFMNREMLYNDLSGFLAMHFPCKVQKISINAGFTCPNRDGSVGYGGCTYCNNQTFNPAYCHTGKSVAQQLEEGKRFFVRKYPEMKYLAYFQAYTNTYGELEELKRKYEEALMVEDVVGLVIGTRPDCMPISLLDYLEDLGKRTFVLVEYGIESTDDETLRRINRGHTFAVSAEAVRKTAERGILVGGHIILGLPGEEREMLIRQAGVLSQLPLTTLKLHQLQLIKGTRMASEYVKEPEAFHLYTADEYVDLVIDYIEHLRPDIVLERFVSQSPKELLIAPDWGLKNYEFTDKVKKRMREKDAWQGKYYKY”, the “soluble on expression in E. coli” value is given as “not soluble”.

On to “MKITNPVLKGFNPDPSICRAGEDYYIAVSTFEWFPGVQIHHSKDLVNWHLVAHPLQRVSQLDMKGNPNSGGVWAPCLSYSDGKFWLIYTDVKVVDGAWKDCHNYLVTCETINGDWSEPIKLNSSGFDASLFHDTDGKKYLLNMLWDHRIDRHSFGGIVIQEYSDKEQKLIGKPKVIFEGTDRKLTEAPHLYHIGNYYYLLTAEGGTRYEHAATIARSANIEGPYEVHPDNPILTSWHDPGNPLQKCGHASIVQTHTDEWYLAHLTGRPIHPDDDSIFQQRGYCPLGRETAIQKLYWKDEWPYVVGGKEGSLEVDAPSIPETIFEATYPEVDEFEDSTLNINFQTLRIPFTNELGSLTQAPNHLRLFGHESLTSTFTQAFVARRWQSLHFEAETAVEFYPENFQQAAGLVNYYNTENWTALQVTHDEELGRILELTICDNFSFSQPLNNKIVIPREVKYVYLRVNIEKDKYYYFYSFNKEDWHKIDIALESKKLSDDYIRGGGFFTGAFVGMQCQDTGGNHIPADFRYFRYKEK”, for which the “soluble on expression in E. coli” value was “soluble”.

Take “MKITREELAVQVDVAQWSWLRAHLERGGLIVVNRGLDLVEVGVSIASDDTAVVGDWIQTGLLAKPSAEQISAWDANEEISFSALIISPYVLIQEQKQ”: the “soluble on expression in E. coli” value is “not soluble”.

Regarding “MKIVCSKEQLMEGINVVQKAVPTKATLTILEGILLEAYDNFKMTGNDLELGIECLIDADILEKGSIVLNSKMFGDIVRRLPDSEVLIEVKENNTVIIECDNSHFELRGMPSDSFPSLPSIEKENMIKVSQKAIRDMIRQTLFAVSTEGTRPILTGSLIECAGNEITFVSIDGFRMALRKNFNNEGFSEFSVVVPAKTLSEIGKILQPVDEDIYIYSSQNQILFEIGNCKVVSRLLEGEYLNYKSIIPPEYETSVRLRTEDLLSSLERASLITSDEKKYPVKFNIIDDKIIITSNTEIGAVREEIRVEVNGSNMEVGFNPRYFIEALRVIDDELVDIYFNSSVGPCTIRPLEGDSFAYMILPVRINK”, the “soluble on expression in E. coli” value was “soluble”.

“MKIVIAPDSFKESLSADKCCQAIKAGFSTVFPDARYVCLPIADGGEGTVDAMVAATGGKRVSVDVSGPMGEKVNGFYGLTGDGKTAIIEMAAASGLMLVAPEARNPLLASSFGTGELIRHALDAGIRHIILGIGGSATVDGGMGVAQALGVRFLDAQGTPLGAGGGNLSRLASIDLQGCDPRISECRIEVACDVDNPLVGPRGAAAVFGPQKGATPEMVETLENGLRNYARVLHALTGRDMSQIPGGGAAGGMGIAAIVFLEAEMKPGIEIVMQAVKLEEAVKEASLVITGEGRIDSQTAGGKAPIGVASVAKRHHVPVIGIAGVLGDGVEVVHRHGIDAVFSILPRLAPLPEVLANGEQNLYHSACNIARVIKLGQDIGTR”: the “soluble on expression in E. coli” value was “not soluble”.

In the case of “MKIVIAPDSFKESLTAQQVAEAIKRGFQQSIADVECLLCPVGDGGEGTVDAIRHSLDLEEKCLQVTGSFGQKEVMRYFQKEQLALFEVADLVGLGKIPLEKRNPLQIQTRGIGELIRHLISQEIKEIYIGVGGTASNDGGIGIAAGLGYQFYDEDGNALPACGQSLLNLASVSTENRYKIPEDVHIRILADVVSPLCGHQGATYTFGKQKGLDSTMFEVVDQAIQDFYEKVSPATLKLKGAGAGGGIAGGLCAFAQASIVSGIDTCLDLIDFDKKVSDVDLVIVGEGRLDRQSLAGKAPIGVAKRTPVGVPVVAICGSLVEDLPSLPFENIQAAFSILEKSEPLEDSLKNASLYLEHTASNIGHLLNMPKI”, the “soluble on expression in E. coli” value is listed as “soluble”.

As to “MKIVIDLMGADHGVLPIIEGVSRALENKSFSVVLVGDKDKATPFISKELASKVEMIHTQDYIKMEEAATEAIKRKESSIYLGMDILKNGADALISAGHSGATMGLATLRLGRIKGVERPAICTLMPSVGKRPSVLLDAGANTDCKPEYLIDFALMGYEYAKSVLHYDSPKVGLLSNGEEDIKGNTLVKETHKMLKAYDFFYGNVEGSDIFKGVVDVVVCDGFMGNVVLKTTEGVASAIGSIFKDEIKSSFKSKMGALMLKNAFGILKQKTDYAEYGGAPLLGVNKSVIISHGKSNARAVECAIYQAISAVESQVCLRITQAFESLKSQSFESQSDQQDA”, the “soluble on expression in E. coli” value was “not soluble”.

As to “MKIYLMRHTSVLFNGNEHCYGFTDVDVRDTFEEEAAAACARLKGLDPEAVFTSPLQRAAKLAAFCGYPDAIRDDRLKEMNFGDWEGKPWEEILDTTDIEAFFRRYIDEPVSGGESQREQFERVRDFILEKKAAGYRSILIFCHGGVINCARTLVGQCTLESAFASLPPFGSLTELIL”, the “soluble on expression in E. coli” value is “not soluble”.

For “MKKALLVVSFGTSYHDTCEKNIVACERDLAASCPDRDLFRAFTSGMIIRKLRQRDGIDIDTPLQALQKLAAQGYQDVAIQSLHIINGDEYEKIVREVQLLRPLFTRLTLGVPLLSSHNDYVQLMQALRQQMPSLRQTEKVVFMGHGASHHAFAAYACLDHMMTAQRFPARVGAVESYPEVDILIDSLRDEGVTGVHLMPLMLVAGDHAINDMASDDGDSWKMRFNAAGIPATPWLSGLGENPAIRAMFVAHLHQALNMAVEEAA”, the “soluble on expression in E. coli” value was “soluble”.

On to “MKKDIGDHLISKLDLQDIAKVLSDELSGSELNTVLLDIFNKRVQQETPSSLLSKYEGNKLVKPALLEDVLEYKEKELRCYKLIAGRGFEPIELSPVAQFGTNSVIATVDQKKVLTSLRNTEVQADPTNTIALHYASLKKKGELDNKTYNYSNISRVIRTQVFNNPNFTPHFTVLALISCGRDTGSFNFEKEELLKHLTTSYEICKSYGVEKIYYEIIPCKGYDSQSPLIMESISYVRKKNSNLEVLVIAPEHDNNYYHGFRIKQQIVIGGNTIEIADGGLLDWTQQLLTNKKERMMTFGLGIQVLYHLTK”, for which the “soluble on expression in E. coli” value is reported as “soluble”.

With “MKKDWQEQLPLNHIRDIKTVSGGDVNEAFKVTTEDDVYFLLVQRNRDKSFYAAEIAGLNAFEEAGVTAPHVIDSGEINGDAFLILSYLDEGTTGSQRELGQLVAKMHSQQQSDGKFGFDLPHEGGDISFDNTWSDSWIEIFVERRMDHLRDELMRKGLWNDEDNKVYEQVRTVMVNELENHNSNPSLLHGDLWGGNYMFLTDGSPALFDPAPFYGDREFDLGITTVFGGFTREFYDEYEKHYPLGKGSRKRLEFYRLYLFMVHLLKFGGMYASSVNRSMDEILALEHHHHHH”, the “soluble on expression in E. coli” value was “soluble”.

For the sequence “MKKEIIVYTISDSLGETSQKLLAAASAQYPDISFLNRYNFSFVTTEEELLEILKDALKDKALVVSTLVSKQLITAAKEFSERTGLLYLDLMAPFFELIQAKAGVDPIEEPGRRHQLDRAYFDKISAIEFAVKYDDGKNPQGFLDSDILLLGVSRTSKTPVSMYLANQGYRVSNLPLIPEVPLPPILEEMDPQKMIGLVCSPETLGQIRSSRLASLGLGNETSYTNVERIEQELAYAEEIFAKYGIPVIDVTAKSVEETAFLIKEKLDERNLEHHHHHH”, the “soluble on expression in E. coli” value is given as “soluble”.

For the sequence “MKKEPLFVALSNQKGGVGKSTLTVLLASYFHYHKAKNVLVVDCDYPQHSMMTLREWDIKNVEKTPRLQSLLVEQFGDTGRKAYNILASMPEQAKETAYGFIDRSDTEYDLVLLDLPGTVNTTGVFQSIINMDYVFTPITQERMVMQSSMSFVLSIREYLLHHKGVPLRDIHMFWNKMDKRVSRDLYDAYMEIIRSLGLPVLNTVLPAAERYKKDVGLNGQIFRSTLFPPSAAALKGSNFDLLAAEMETILGL”, the “soluble on expression in E. coli” value is recorded as “not soluble”.
